The target in assay [1] is T1, human CTLA-4-Fc (Chimerigen) (human, UniProt P16410 36-161; P01857 99-330 = IgG part, limits assumed).
T1 construct: extracellular domain;domain: Fc portion; Bought protein; also called hCTLA-4-Fc; huCTLA-4-Ig
In words: SPR-Affinity of the monomer towards hCTLA-4-Fc.

The target in assay [2] is T1, human CTLA-4-Fc (Chimerigen). In words: SPR-Affinity of the PEGylated monomer towards hCTLA-4-Fc.
The target is the same in assay [3]. The assay is described as follows: Affinity-ELISA of the PEGylated monomer towards hCTLA-4-Fc.
Assay [4] has the same target. In words: SPR as in Example 9.
Assay [5] deals with T2, mCTLA-4-Fc (R&D Systems) (mouse, UniProt P09793 36-162). In words: SPR as in Example 9.
The target in assay [6] is T1, human CTLA-4-Fc (Chimerigen). In words: SPR; KD listed beside Tm. Background: SPR reads the build-up and loss of mass on a sensor chip optically.
Assay [7] addresses T2, mCTLA-4-Fc (R&D Systems). In words: SPR; KD listed beside Tm.
Assay [8] addresses T1, human CTLA-4-Fc (Chimerigen). In words: SPR, Fc fusion captured via anti-human IgG Fc.
In assay [9] the target is T2, mCTLA-4-Fc (R&D Systems). In words: SPR, Fc fusion captured via anti-human IgG Fc.

Numbering of substitutions follows the chain as printed. In names and notes the source's numbering stands.

Results on 32 molecules are retold here after patent US20090042785A1 (Pieris, published 2009).

T2 sequence (P09793 whole entry): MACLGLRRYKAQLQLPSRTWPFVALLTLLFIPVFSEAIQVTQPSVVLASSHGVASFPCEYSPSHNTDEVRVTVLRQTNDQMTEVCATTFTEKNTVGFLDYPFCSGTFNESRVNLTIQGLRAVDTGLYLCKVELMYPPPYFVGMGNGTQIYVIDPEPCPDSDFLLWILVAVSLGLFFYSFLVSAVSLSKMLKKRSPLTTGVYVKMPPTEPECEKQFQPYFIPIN
T1 sequence (P16410 other isoform, or with tags, fused parts or gaps mutant limits assumed): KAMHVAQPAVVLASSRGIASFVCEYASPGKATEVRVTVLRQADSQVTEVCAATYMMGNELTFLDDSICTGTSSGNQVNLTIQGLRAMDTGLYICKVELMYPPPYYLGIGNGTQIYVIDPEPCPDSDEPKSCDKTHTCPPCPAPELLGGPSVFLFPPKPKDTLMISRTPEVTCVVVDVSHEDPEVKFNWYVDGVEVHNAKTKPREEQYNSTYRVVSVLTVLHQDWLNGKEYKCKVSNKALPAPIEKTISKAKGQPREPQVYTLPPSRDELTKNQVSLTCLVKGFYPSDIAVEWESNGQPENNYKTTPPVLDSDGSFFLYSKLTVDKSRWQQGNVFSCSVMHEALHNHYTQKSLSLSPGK

B1: S140.4-O10 with a free cystein residue at position 87 (designed binder)
chain: QDSTSDLIPAPPLSKVPLQQNFQDNQFHGKWYVVGLAGNRILRDDQHPMNMYATIYELKEDKSYNVTSVISSHKKCEYTIATFVPGCQPGEFTLGNIKSYGDKTSYLVRVVSTDYNQYAVVFFKLAEDNAEFFAITIYGRTKELASELKENFIRFSKSLGLPENHIVFPVPIDQCIDGSAWSHPQFEK
notes: Not PEGylated; also called O10_S87C; S87C variant
What is called Kd is the concentration at which binding is half-saturated. In the case of B1, in assay [1], the affinity, expressed as Kd, was 6 nM.

B2: S140.4-O10_A145C (designed binder)
chain: QDSTSDLIPAPPLSKVPLQQNFQDNQFHGKWYVVGLAGNRILRDDQHPMNMYATIYELKEDKSYNVTSVISSHKKCEYTIATFVPGSQPGEFTLGNIKSYGDKTSYLVRVVSTDYNQYAVVFFKLAEDNAEFFAITIYGRTKELCSELKENFIRFSKSLGLPENHIVFPVPIDQCIDG
notes: Produced from phNGAL15 without the T7 tag
For the molecule B2, in assay [1], the affinity, expressed as Kd, was 6 nM.

B3: S140.4-O10_S146C (designed binder)
chain: B2 chain with C145A, S146C
notes: as for B2
B3: in [1], the Kd amounted to 9 nM.

B4: S140.4-O10_V84C (designed binder)
chain: B2 chain with V84C, C145A
notes: as for B2
In [1], B4 registered a dissociation constant (Kd) of 15 nM.

B5: S140.4-O10_A145C PEGylated with 12k PEG-maleimide (designed binder)
chain: B2 chain
modifications: 12k PEG-maleimide on Cys 145
notes: also called O10_A145C PEGylated monomer
In assay [2], B5 gave a Kd of 50 nM. In addition, the “ELISA-Affinity PEGylated Monomer” value in assay [3] came to 74 nM.

B6: hNGAL mutein S140.3-P07 (designed binder)
chain: B2 chain with S71F, S72P, N129D, C145A
notes: tagged entry not tied to the name; not shown: N-terminal T7 detection tag from vector phNGAL37; C-terminal Strep-tag II from vector phNGAL37
The koff is the first-order rate constant of dissociation. Read a low koff as a long-lived complex. As a reminder, the kon is the second-order rate constant of association. The low end stands for slow association, the high end for fast association. For B6, the Kd was 29 nM in assay [4], 98 nM with mCTLA-4-Fc (R&D Systems) [5], 29 nM in assay [6] and 98 nM with mCTLA-4-Fc (R&D Systems) [7]. The results for the koff (in [4]; in the assay with mCTLA-4-Fc (R&D Systems) [5]) were 0.000319 s⁻¹ and 0.000666 s⁻¹, respectively. In addition, the kon in assay [4] is 11000 M⁻¹ s⁻¹; with mCTLA-4-Fc (R&D Systems) [5] it was 6800 M⁻¹ s⁻¹.

B7: S140.4-O10_S146C PEGylated with 12k PEG-maleimide (designed binder)
chain: B2 chain with C145A, S146C
modifications: 12k PEG-maleimide on Cys 146
notes: also called O10_S146C PEGylated monomer
In the case of B7, binding in assay [2] was put at a Kd of 50 nM. In addition, the “ELISA-Affinity PEGylated Monomer” value in assay [3] was found to be 100 nM.

B8: S140.4-O10_S158C (designed binder)
chain: B2 chain with C145A, S158C
notes: as for B2
As to B8, the Kd in assay [1] is 13 nM. That is a double-digit nanomolar value.

B9: S140.4-O10_E143C (designed binder)
chain: B2 chain with E143C, C145A
notes: as for B2
Take B9: the Kd in assay [1] was determined as 15 nM.

B10: S140.4-O10_T141C PEGylated with 12k PEG-maleimide (designed binder)
chain: B2 chain with T141C, C145A
modifications: 12k PEG-maleimide on Cys 141
notes: also called O10_T141C PEGylated monomer
Regarding B10, in assay [2], the Kd is 69 nM. Also, the “ELISA-Affinity PEGylated Monomer” value in assay [3] is 82 nM.

B11: S140.4-O10_N21C (designed binder)
chain: B2 chain with N21C, C145A
notes: as for B2
B11 yielded a Kd in assay [1] of 32 nM. In other words, the double-digit nanomolar range.

B12: S140.4-O10_N116 (designed binder)
chain: B2 chain with N116C, C145A
notes: Produced from phNGAL15 without the T7 tag; also called O10_N116C
In [1], B12 gave a Kd of 10 nM.

B13: hNGAL mutein S140.1-F09 (designed binder)
chain: B2 chain with D114N, C145A
notes: as for B6
Take B13: the Kd was found to be 7.8 nM in [4], 27.9 nM with mCTLA-4-Fc (R&D Systems) [5], 7.8 nM in assay [6] and 27.9 nM with mCTLA-4-Fc (R&D Systems) [7]. In addition, the figures for the koff (in assay [4]; in the assay with mCTLA-4-Fc (R&D Systems) [5]) were roughly 9.2e-05 s⁻¹ and 0.000379 s⁻¹, respectively. In addition, the kon came out at 11800 M⁻¹ s⁻¹ in assay [4] and 14000 M⁻¹ s⁻¹ with mCTLA-4-Fc (R&D Systems) [5].

B14: S140.4-O10_S14C (designed binder)
chain: B2 chain with S14C, C145A
notes: as for B2
In assay [1], B14 returned a Kd of 13 nM.

B15: S140.4-O10_V84C PEGylated with 12k PEG-maleimide (designed binder)
chain: B2 chain with V84C, C145A
modifications: 12k PEG-maleimide on Cys 84
notes: also called O10_V84C PEGylated monomer
The molecule B15 displayed a Kd in assay [2] of 97 nM. In addition, in assay [3], the “ELISA-Affinity PEGylated Monomer” value worked out at 100 nM.

B16: hNGAL mutein S140.2-P24 (designed binder)
chain: B2 chain with N50D, N116S, C145A
notes: as for B6
In the case of B16, the Kd in [4] was found to be 20 nM; with mCTLA-4-Fc (R&D Systems) [5], 47 nM; in assay [6], 20 nM; in the assay with mCTLA-4-Fc (R&D Systems) [7], 47 nM. Besides, the koff in assay [4] amounted to 0.00028 s⁻¹; in the assay with mCTLA-4-Fc (R&D Systems) [5] it was 0.000705 s⁻¹. Besides, the kon in [4] is 14000 M⁻¹ s⁻¹; in the assay with mCTLA-4-Fc (R&D Systems) [5] it was 15000 M⁻¹ s⁻¹.

B17: S140.4-O10_E60C (designed binder)
chain: B2 chain with E60C, C145A
notes: as for B2
B17 returned a Kd in [1] of 24 nM.

B18: S140.4-O10_E143C PEGylated with 12k PEG-maleimide (designed binder)
chain: B2 chain with E143C, C145A
modifications: 12k PEG-maleimide on Cys 143
notes: also called O10_E143C PEGylated monomer
As for B18, binding in [2] was characterised by a dissociation constant (Kd) of 85 nM. Moreover, the “ELISA-Affinity PEGylated Monomer” value in assay [3] was determined as 103 nM.

B19: S140.4-O10_T141C (designed binder)
chain: B2 chain with T141C, C145A
notes: as for B2
Molecule B19 displayed a Kd in assay [1] of 4 nM.

B20: S140.4-O10_Q88C (designed binder)
chain: B2 chain with Q88C, C145A
notes: as for B2
B20 displayed a Kd in assay [1] of 15 nM. This Kd is about 3.8-fold higher than that of the molecule before.

B21: hNGAL mutein F92.1-J08 (designed binder)
chain: QDSTSDLIPAPPLSKVPLQQNFQDNQFHGKWYVVGLAGNRILRDDQHPMNMYATIYELKEDKSYNVTSVIFPHKKCEYTIATFVPGSQPGEFTLGNIKSYGDKTSYLVRVVSTNYNQYAVVFFKLAEDNAEFFAITIYGRTKELASELKENFIRFSKSLGLPENHIVFPVPIDQCIDGSAWSHPQF
notes: also called CTLA-4-J08
With B21, in [4], the affinity, expressed as Kd, was 12.8 nM; the koff came to 0.000116 s⁻¹; the kon was 9240 M⁻¹ s⁻¹. In [6], the Kd came to 12.8 nM. For the same molecule, in [8], binding was characterised by a dissociation constant (Kd) of 12.8 nM, the koff was 0.000116 s⁻¹ and the kon came to 9240 M⁻¹ s⁻¹.

B22: hNGAL mutein S109.5-L23 (designed binder)
chain: B21 chain with N65D, I80T, D102G, Y118H, V120T, E127G
Molecule B22 returned a Kd with mCTLA-4-Fc (R&D Systems) [9] of 19 nM. In other words, the double-digit nanomolar range.

B23: hNGAL mutein S109.4-A15 (designed binder)
chain: B21 chain with N50D, Y118H, V120T
Turning to B23, in assay [8], the Kd turned out to be 26 nM.

B24: hNGAL mutein S109.5-L04 (designed binder)
chain: B21 chain with Q46R, Y118H, V120T
Turning to B24, the results for the Kd (in [8]; in the assay with mCTLA-4-Fc (R&D Systems) [9]) were 29 nM and 42 nM, respectively.

B25: hNGAL mutein S106.1-N15 (designed binder)
chain: B21 chain with V34L, Y118H, V120M
In the case of B25, the Kd in [8] stood at 43 nM; with mCTLA-4-Fc (R&D Systems) [9] it was 110 nM.

B26: hNGAL mutein S106.3-K20 (designed binder)
chain: B21 chain with Y118H, K124Q, A126V, E131G
B26: the Kd came to 29 nM in assay [8] and 300 nM with mCTLA-4-Fc (R&D Systems) [9].

B27: hNGAL mutein S94.2-F05 (designed binder)
chain: B21 chain with V120M, I135V
Turning to B27, the Kd in [8] was 18 nM; with mCTLA-4-Fc (R&D Systems) [9], 65 nM.

B28: hNGAL mutein S67.2-F03 (designed binder)
chain: B21 chain with Y118H, V120M, A126V
As for B28, in assay [8], binding was characterised by a dissociation constant (Kd) of 47.1 nM, the koff came to 0.00033 s⁻¹ and the kon was 7030 M⁻¹ s⁻¹. In the assay with mCTLA-4-Fc (R&D Systems) [9], binding was characterised by a dissociation constant (Kd) of 198 nM, the koff was found to be 0.00089 s⁻¹ and the kon worked out at 4500 M⁻¹ s⁻¹.

B29: hNGAL mutein S109.6-J11 (designed binder)
chain: B21 chain with I80F, Y118H, V120T, I135V
As for B29, the figures for the Kd (in assay [8]; with mCTLA-4-Fc (R&D Systems) [9]) were 20 nM and 47 nM, respectively.

B30: hNGAL mutein S107.4-C16 (designed binder)
chain: B21 chain with Y118H, V120M, K124E, A126V, E131G
With B30, the Kd amounted to 28 nM in assay [8] and 275 nM in the assay with mCTLA-4-Fc (R&D Systems) [9].

B31: hNGAL mutein S106.3-O19 (designed binder)
chain: B21 chain with Y78H, N114D, Y118H, V120M, K124E, A126V, E131G
Regarding B31, the Kd in assay [8] was 22 nM; with mCTLA-4-Fc (R&D Systems) [9] it was 135 nM.

B32: hNGAL mutein S67.3-C21 (designed binder)
chain: QDSTSDLIPAPPLSKVPLQQNFQDNQFHGKWYVVGLAGNYIWRNDRYPMQMYATIYELKEDKSYNVTSVIFDTKKCEYPIATFVPGSQPGEFTLGNIKSYRMDTSYLVRVVSTNYNQHAMVFFKQVNHNTEHFAITIYGRTKELASELKENFIRFSKSLGLPENHIVFPVPIDQCIDGSAWSHPQF
As to B32, in [8], the Kd worked out at 20 nM, the koff was determined as 0.00033 s⁻¹ and the kon was found to be 16000 M⁻¹ s⁻¹. In the assay with mCTLA-4-Fc (R&D Systems) [9], this molecule yielded a Kd of 6800 nM, a koff of 0.098 s⁻¹ and a kon of 14500 M⁻¹ s⁻¹.
